The text below walks through data of IntAct's records for PubMed 38123684.

B1: cAMP-regulated phosphoprotein 19 (Homo sapiens), P56211 (parent)
chain: MSAEVPEAASAEEQKEMEDKVTSPEKAEEAKLKARYPHLGQKPGGSDFLRKRLQKGQKYFDSGDYNMAKAKMKNKQLPTAAPDKTEVTGDHIPTPQDLPQRKPSLVASKLAG
partner: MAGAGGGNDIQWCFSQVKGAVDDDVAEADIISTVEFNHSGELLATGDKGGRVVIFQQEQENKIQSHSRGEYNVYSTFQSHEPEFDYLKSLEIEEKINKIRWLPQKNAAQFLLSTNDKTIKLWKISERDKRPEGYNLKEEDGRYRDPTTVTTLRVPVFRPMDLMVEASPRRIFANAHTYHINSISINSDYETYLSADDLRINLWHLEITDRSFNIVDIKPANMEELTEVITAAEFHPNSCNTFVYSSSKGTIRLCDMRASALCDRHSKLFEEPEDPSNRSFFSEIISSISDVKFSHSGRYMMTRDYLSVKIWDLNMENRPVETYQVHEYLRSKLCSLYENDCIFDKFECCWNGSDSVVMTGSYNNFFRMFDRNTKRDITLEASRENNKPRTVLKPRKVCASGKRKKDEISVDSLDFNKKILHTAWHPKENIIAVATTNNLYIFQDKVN

This assay covers variants of B1. The note with it: with 2aba_human PPP2R2A.
Consider MSAEVPEAASAEEQKEMEDKVTSPEKAEEAKLKARYPHLGQKPGGSDFLRKRLQKGQKYFDEGDYNMAKAKMKNKQLPTAAPDKTEVTGDHIPTPQDLPQRKPSLVASKLAG [S62E], for which the “effect of a mutation on the interaction” value was “with no effect”.
